Results from US20260151494A1 (ARO BIOTHERAPEUTICS, published 2026).

Legend:
[1] = target: human CD71 on cells (SKBR3; SW620-rLuc-KRAS) (human, UniProt P02786 1-760); assay: cell-based or functional assay
[2] = target: T1, human CD71 extracellular domain (human, UniProt P02786 89-760); assay: primary ELISA, luminescence; further: test concentration or dose not given here
T1 construct: also called hCD71; human CD71-ECD

[3] = target: T2, apical domain of cynomolgus CD71 (cynomolgus, UniProt A0A2K5X958 189-383); assay: primary ELISA, luminescence; further: test concentration or dose not given here
T2 construct: domain: apical domain; also called Cyno apical domain

[4] = target: T1, human CD71 extracellular domain; assay: primary ELISA, ratio of signal to HSA control
[5] = target: T2, apical domain of cynomolgus CD71; assay: primary ELISA, ratio of signal to HSA control

T1 sequence (P02786 89-760): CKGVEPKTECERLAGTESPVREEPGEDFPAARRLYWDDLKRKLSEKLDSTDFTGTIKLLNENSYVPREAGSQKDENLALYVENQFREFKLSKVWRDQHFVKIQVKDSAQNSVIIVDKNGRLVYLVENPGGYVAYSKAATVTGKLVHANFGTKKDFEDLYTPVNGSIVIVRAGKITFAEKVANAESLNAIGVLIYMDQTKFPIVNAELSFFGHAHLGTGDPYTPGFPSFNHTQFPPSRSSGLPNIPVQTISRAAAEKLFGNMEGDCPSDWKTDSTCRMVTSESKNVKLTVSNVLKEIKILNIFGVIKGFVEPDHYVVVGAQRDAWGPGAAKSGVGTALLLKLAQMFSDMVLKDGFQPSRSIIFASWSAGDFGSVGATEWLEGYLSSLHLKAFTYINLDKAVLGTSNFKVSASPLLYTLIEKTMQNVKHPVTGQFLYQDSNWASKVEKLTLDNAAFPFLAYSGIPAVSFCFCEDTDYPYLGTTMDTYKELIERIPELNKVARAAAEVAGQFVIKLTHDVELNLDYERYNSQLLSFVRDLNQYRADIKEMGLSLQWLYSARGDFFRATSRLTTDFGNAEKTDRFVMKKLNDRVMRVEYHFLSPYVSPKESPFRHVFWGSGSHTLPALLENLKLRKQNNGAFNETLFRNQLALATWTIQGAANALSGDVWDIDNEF
T2 sequence (A0A2K5X958 entry or part of it): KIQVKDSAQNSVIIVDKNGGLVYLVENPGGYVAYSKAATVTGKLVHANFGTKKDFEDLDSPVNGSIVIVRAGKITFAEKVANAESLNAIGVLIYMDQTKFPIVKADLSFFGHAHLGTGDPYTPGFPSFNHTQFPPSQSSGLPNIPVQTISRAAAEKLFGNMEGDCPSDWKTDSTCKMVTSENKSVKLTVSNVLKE
Sequence of human CD71 on cells (SKBR3; SW620-rLuc-KRAS) (P02786 whole entry, the tested form may be a part): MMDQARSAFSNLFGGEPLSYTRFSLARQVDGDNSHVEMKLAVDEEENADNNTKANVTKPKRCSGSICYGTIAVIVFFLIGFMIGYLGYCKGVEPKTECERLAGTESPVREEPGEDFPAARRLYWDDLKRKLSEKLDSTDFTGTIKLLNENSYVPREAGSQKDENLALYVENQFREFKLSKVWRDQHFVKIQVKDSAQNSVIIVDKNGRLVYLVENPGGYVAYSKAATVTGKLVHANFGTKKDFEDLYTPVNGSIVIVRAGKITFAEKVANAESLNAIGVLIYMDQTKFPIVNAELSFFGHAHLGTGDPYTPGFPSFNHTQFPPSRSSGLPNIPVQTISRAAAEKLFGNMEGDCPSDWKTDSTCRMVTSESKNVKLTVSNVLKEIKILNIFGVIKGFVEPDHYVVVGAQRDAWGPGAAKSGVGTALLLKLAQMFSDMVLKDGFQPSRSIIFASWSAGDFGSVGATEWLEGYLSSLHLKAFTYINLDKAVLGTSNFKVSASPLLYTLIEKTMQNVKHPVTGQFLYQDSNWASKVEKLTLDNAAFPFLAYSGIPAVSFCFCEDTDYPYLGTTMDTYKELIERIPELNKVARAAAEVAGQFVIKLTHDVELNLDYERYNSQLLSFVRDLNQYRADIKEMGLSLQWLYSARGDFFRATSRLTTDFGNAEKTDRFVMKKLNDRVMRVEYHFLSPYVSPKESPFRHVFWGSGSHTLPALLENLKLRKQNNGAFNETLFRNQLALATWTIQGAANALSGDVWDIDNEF

Binder | LSA EC50 (luciferase reporter assay, SW620-rLuc-KRAS cells, 72 h) [1] [nM] | RLU [2] [RLU] | RLU [3] [RLU] | hCD71:HSA [4] | Cyno apical domain:HSA [5]
CD71-binding FN3 domain of SEQ ID NO: 234 conjugated to KRAS2 siRNA (designed binder, conjugated to KRAS2 tool siRNA; site and linker not stated) MSLPAPKNLVVSRVTEDSARLSWTAPDAAFDSFFIGYLEPQPPGEAIALYVPGSERSYDLTGLKPGTEYNVTIQGVKGGFPSEPLVAHFTT | 0.63 | – | – | – | –
CD71-binding FN3 domain of SEQ ID NO: 331 conjugated to KRAS2 siRNA (designed binder, conjugated to KRAS2 tool siRNA; site and linker not stated) MSLPAPKNLVVSRVTEDSARLSWTAPDAAFDSFFIGYLEPQPPGEAIHLYVPGSERSYDLTGLKPGTEYNVTIQGVKVGFPSEPLIANFTT | 0.75 | – | – | – | –
CD71-binding FN3 domain of SEQ ID NO: 293 conjugated to KRAS2 siRNA (designed binder, conjugated to KRAS2 tool siRNA; site and linker not stated) MSLPAPKNLVVSRVTEDSARLSWTAPDAAFDSFFIGYLEPQPPGEAIDLYVPGSERSYDLTGLKPGTEYNVTIQGVKGGFPSHPLVATFTT | 0.54 | – | – | – | –
CD71-binding FN3 domain of SEQ ID NO: 270 conjugated to KRAS2 siRNA (designed binder, conjugated to KRAS2 tool siRNA; site and linker not stated) MSLPAPKNLVVSRVTEDSARLSWTAPDAAFDSFFIGYLEPQPPGEAIHLYVPGSERSYDLTGLKPGTEYNVTIQGVKGGFPSEPLIANSTT | 2.1 | – | – | – | –
CD71-binding FN3 domain of SEQ ID NO: 335 conjugated to KRAS2 siRNA (designed binder, conjugated to KRAS2 tool siRNA; site and linker not stated) MSLPAPKNLVVSRVTEDSARLSWTAPDAAFDSFFIGYLEPQPPGEAIDLYVPGSERSYDLTGLKPGTEYNVTIQGVKGGFPSLPLVATFTT | 0.47 | – | – | – | –
CD71-binding FN3 domain of SEQ ID NO: 333 conjugated to KRAS2 siRNA (designed binder, conjugated to KRAS2 tool siRNA; site and linker not stated) MSLPAPENLVVSRVTEDSARLSWTAPDAAFDSFFIGYLEPQPPGEAIALYVPGSERSYDLTGLKPGTEYNVTIQGVKGGFPSLPLVATFTT | 0.58 | – | – | – | –
CD71-binding FN3 domain of SEQ ID NO: 281 conjugated to KRAS2 siRNA (designed binder, conjugated to KRAS2 tool siRNA; site and linker not stated) MSLPAPKNLVVSRVTEDSARLSWTAPDAAFDSFFIGYLEPQPPGEAIALYVPGSERSYDLTGLKPGTEYNVTIQGVKGGFPSEPLIANFTT | 0.39 | – | – | – | –
CD71-binding FN3 domain of SEQ ID NO: 290 conjugated to KRAS2 siRNA (designed binder, conjugated to KRAS2 tool siRNA; site and linker not stated) MSLPAPKNLVVSRVTEDSARLSWTAPDAAFDSFFIGYLEPQPPGEAIHLYVPGSERSYDLTGLKPGTEYNVTIQGVKGGFPSEPLVATFTT | 0.57 | – | – | – | –
CD71-binding FN3 domain of SEQ ID NO: 972 conjugated to KRAS2 siRNA (designed binder, conjugated to KRAS2 tool siRNA; site and linker not stated) MSLPAPKNLVVSRVTEDSARLSWTAPDAAFDSFFIGYLEPQPPGEAIALYVPGSERSYDLTGLKPGTEYNVTIQGAKGGFPSEPLVVHFTT | 0.49 | – | – | – | –
CD71-binding FN3 domain of SEQ ID NO: 973 conjugated to KRAS2 siRNA (designed binder, conjugated to KRAS2 tool siRNA; site and linker not stated) MSLPAPKNLVVSRVTEDSARLSWTAPDAAFDSFFIGYLEPQPPGEAIHLYVPGSERSYDLTGLKPGTEYNGTIQGVKVGFPSEPLIANFTT | 0.48 | – | – | – | –
CD71-binding FN3 domain of SEQ ID NO: 222 (designed binder) MSLPAPKNLVVSRVTEDSARLSWTAPDAAFDSFFIGYLEPQPPGEAITLYVPGSERSYDLTGLKPGTEYNVTIQGVKGGFPSGPLIASFTT | – | 5.78e+06 | 6.01e+06 | 215 | 223
CD71-binding FN3 domain of SEQ ID NO: 343 conjugated to KRAS2 siRNA (designed binder, conjugated to KRAS2 tool siRNA; site and linker not stated) MSLPAPKNLVVSRVTEDSARLSWTAPDAAFDSFFIGYLEPQPPGEAIALWVPGSERSYDLTGLKPGTEYNVTIQGVKGGFPSEPLVATFTT | 0.64 | – | – | – | –
CD71-binding FN3 domain of SEQ ID NO: 264 conjugated to KRAS2 siRNA (designed binder, conjugated to KRAS2 tool siRNA; site and linker not stated) MSLPAPKNLVVSRVTEDSARLSWTAPDAAFDSFFIGYLEPQPPGEAIALYVPGSERSYDLTGLKPGTEYNVTIQGVKGGFPSEPLVVHFTT | 0.45 | – | – | – | –
CD71-binding FN3 domain of SEQ ID NO: 974 conjugated to KRAS2 siRNA (designed binder, conjugated to KRAS2 tool siRNA; site and linker not stated) MSLPAPKNLVVSRVTEDSARLSWTAPDAAFDSFFIGYLEPQPPGEAIALYVPGSERSYDLTGLKPGTEYNVTIQGVKGGFPSLPLVATFTT | 0.53 | – | – | – | –
CD71-binding FN3 domain of SEQ ID NO: 295 conjugated to KRAS2 siRNA (designed binder, conjugated to KRAS2 tool siRNA; site and linker not stated) MSLPAPKNLVVSRVTEDSARLSWTAPDAAFDSFFIGYLEPQPPGEAIDLYVPGSERSYDLTGLKPGTEYNVTIQGVKGGFPSEPLVATFTT | 0.47 | – | – | – | –
CD71-binding FN3 domain of SEQ ID NO: 341 conjugated to KRAS2 siRNA (designed binder, conjugated to KRAS2 tool siRNA; site and linker not stated) MSLPAPKNLVVSRVTEDSARLSWTAPDAAFDSFFIGYLEPQPPGEAIELYVPGSERSYDLTGLKPGTEYNVTIQGVKGGFPSLPLVAIFTT | 0.67 | – | – | – | –
CD71-binding FN3 domain of SEQ ID NO: 231 (designed binder) MSLPAPKNLVVSRVTEDSARLSWTAPDAAFDSFFIGYLEPQPPGEAIHLFVPGSERSYDLTGLKPGTEYNVTIQGVKGGFPSEPLIANSTT | – | 4.93e+06 | 5.52e+06 | 56 | 63
CD71-binding FN3 domain of SEQ ID NO: 221 (designed binder) MSLPAPKNLVVSRVTEDSARLSWTAPDAAFDSFFIGYLEPRPPGEAIHLYVPGSERSYDLTGLKPGTEYNITIQGVKGGFPSIPLIASFTT | – | 5.75e+06 | 6.08e+06 | 176 | 186
CD71-binding FN3 domain of SEQ ID NO: 219 (designed binder, the tag is not included in the chain) MSLPAPKNLVVSRVTEDSARLSWTAPDAAFDSFAIMYGERGNPGEAIVLTVPGSERSYDLTGLKPGTEYAVWIYGVKGGNYSYPLSAIFTT | – | 3.01e+06 | 4.58e+06 | 66 | 101
CD71-binding FN3 domain of SEQ ID NO: 225 (designed binder) MSLPAPKNLVVSRVTEDSARLSWTAPDAAFDSFEIGYFENLYLGEAIVLTVPGSERSYDLTGLKPGTEYWVQIGGVKGGNWSAPLSAIFTT | – | 2.43e+06 | 4.22e+06 | 191 | 331
CD71-binding FN3 domain of SEQ ID NO: 224 (designed binder) MSLPAPKNLVVSRVTEDSARLSWTAPDAAFDSFEIGYWENAYKGEAIVLTVPGSERSYDLTGLKPGTEYVVFIGGVKGGGWSGPLSAIFTT | – | 3.1e+06 | 4.79e+06 | 74 | 115
CD71-binding FN3 domain of SEQ ID NO: 233 (designed binder) MSLPAPKNLVVSRVTEDSARLSWTAPDAAFDSFFIGYLEPQPPGEAIHLSVPGSERSYDLTGLKPGTEYWVQIGGVKGGNWSAPLSAIFTT | – | 2.69e+06 | 4.78e+06 | 202 | 359
CD71-binding FN3 domain of SEQ ID NO: 228 (designed binder) MSLPAPKNLVVSRVTEDSARLSWTAPDAAFDSFEIGYWENAYKGEAIVLTVPGSERSYDLTGLKPGTEYVVFIGGVKGGVWSKPLSVIFTT | – | 2.66e+06 | 4.86e+06 | 133 | 242
CD71-binding FN3 domain of SEQ ID NO: 220 (designed binder) MSLPAPKNLVVSRVTEDSARLSWTAPDAAFDSFEIAYWEQSYTGEAIVLTVPGSERSYDLTGLKPGTEYWVQIGGVKGGNWSAPLSAIFTT | – | 2.43e+06 | 4.69e+06 | 388 | 751
CD71-binding FN3 domain of SEQ ID NO: 232 (designed binder) MSLPAPKNLVVSRVTEDSARLSWTAPDAAFDSFEISYWEHTFNGEAIILFVPGSERSYDLTGLKPGTEYVVFIGGVKGGVWSVPLSAIFTT | – | 3.58e+06 | 5.41e+06 | 195 | 295
CD71-binding FN3 domain of SEQ ID NO: 226 (designed binder) MSLPAPKNLVISRVTEDSARLSWTAPDAAFDSFEIGYFENLYLGEAIVLTVPGSERSYDLTGLKPGTEYWVAIGGVKGGLWSLPLSAIFTT | – | 3.1e+06 | 4.33e+06 | 20 | 28
CD71-binding FN3 domain of SEQ ID NO: 230 (designed binder) MSLPAPKNLIVSRVTEDSARLSWTAPDAAFDSLEIGYFENLYLGEAIVLTVPGSERSYDLTGLKPGTEYWVQIGGVKGGNWSAPLSAIFTT | – | 2.54e+06 | 4.73e+06 | 151 | 282
CD71-binding FN3 domain of SEQ ID NO: 223 (designed binder) MSLPAPKNLVVSRVTEDSARLSWTAPDAAFDSFEIAYFERTWFGEAIVLTVPGSERSYDLTGLKPGTEYWVAIGGVKGGLWSLPLSVIFTT | – | 2.25e+06 | 4.11e+06 | 26 | 47
